Experimental data: patent US20210388079A1 (published 2021)

Experiments:
[1] = target: T1, Serine protease inhibitor Kazal-type 2 (SPINK2); peptide SPINK2-001 peptide on HLA-A*02:01 (human); test: IFNγ release; T2 cells loaded with 10 µM to 10 pM peptide (FIG. 28); full-length, on cells
T1 peptide: ALSVLRLAL

[2] = target: T1, Serine protease inhibitor Kazal-type 2 …; test: IFNγ release; T2 cells loaded with 10 µM to 10 pM peptide (FIG. 30); full-length, on cells
[3] = target: T1, Serine protease inhibitor Kazal-type 2 …; test: IFNγ release; T2 cells loaded with 10 µM to 10 pM peptide (FIG. 27); full-length, on cells
[4] = target: T1, Serine protease inhibitor Kazal-type 2 …; test: IFNγ release; T2 cells loaded with 10 µM to 10 pM peptide (FIG. 23); full-length, on cells

B1: R49P2B7 (TCR, V domains shown)
Valpha: AQSVTQLGSHVSVSEGALVLLRCNYSSSVPPYLFWYVQYPNQGLQLLLKYTTGATLVKGINGFEAEFKKSETSFHLTKPSAHMSDAAEYFCAVRIFGNEKLTFGTGTRLTIIP
Vbeta: DVKVTQSSRYLVKRTGEKVFLECVQDMDHENMFWYRQDPGLGLRLIYFSYDVKMKEKGDIPEGYSVSREKKERFSLILESASTNQTSMYLCASSLMGELTGELFFGEGSRLTVL
- EC50 of peptide [1]: > 83.2 nM

B2: R59P2A7 (TCR, V domains shown)
Valpha: QKEVEQNSGPLSVPEGAIASLNCTYSDRGSQSFFWYRQYSGKSPELIMSIYSNGDKEDGRFTAQLNKASQYVSLLIRDSQPSDSATYLCAVQPHDMRFGAGTRLTVKP
Vbeta: SQTIHQWPATLVQPVGSPLSLECTVEGTSNPNLYWYRQAAGRGLQLLFYSVGIGQISSEVPQNLSASRPQDRQFILSSKKLLLSDSGFYLCAWSGLVAEQFFGPGTRLTVL
- EC50 of peptide [2]: 0.86 nM

B3: R44P3E7 (TCR, V domains shown)
Valpha: GEDVEQSLFLSVREGDSSVINCTYTDSSSTYLYWYKQEPGAGLQLLTYIFSNMDMKQDQRLTVLLNKKDKHLSLRIADTQTGDSAIYFCAEINNNARLMFGDGTQLVVKP
Vbeta: AAGVIQSPRHLIKEKRETATLKCYPIPRHDTVYWYQQGPGQDPQFLISFYEKMQSDKGSIPDRFSAQQFSDYHSELNMSSLELGDSALYFCASSPPDQNTQYFGPGTRLTVL
- EC50 of peptide [3]: 0.86 nM

B4: R40P1C2 (TCR, V domains shown)
Valpha: AQTVTQSQPEMSVQEAETVTLSCTYDTSESDYYLFWYKQPPSRQMILVIRQEAYKQQNATENRFSVNFQKAAKSFSLKISDSQLGDAAMYFCAYLNYQLIWGAGTKLIIKP
Vbeta: EPEVTQTPSHQVTQMGQEVILRCVPISNHLYFYWYRQILGQKVEFLVSFYNNEISEKSEIFDDQFSVERPDGSNFTLKIRSTKLEDSAMYFCASSEMTAVGQYFGPGTRLTVT
- EC50 of peptide [4]: 1.94 nM
